Measured values from patent US20250084163A1 (published 2025).
Where two headings read alike, the source gives them in different places.

What was measured:
Assay in all cases: SPR
[1] = molecular target: T1, Recombinant truncated human his-tag ROR1 extracellular domain protein (UniProt Q01973 30-403)
[2] = molecular target: T1, Recombinant truncated human his-tag …; remark: listed apart in the source
[3] = molecular target: T1, Recombinant truncated human his-tag …; remark: listed apart in the source

T1 sequence (Q01973 other isoform, or with tags, fused parts or gaps): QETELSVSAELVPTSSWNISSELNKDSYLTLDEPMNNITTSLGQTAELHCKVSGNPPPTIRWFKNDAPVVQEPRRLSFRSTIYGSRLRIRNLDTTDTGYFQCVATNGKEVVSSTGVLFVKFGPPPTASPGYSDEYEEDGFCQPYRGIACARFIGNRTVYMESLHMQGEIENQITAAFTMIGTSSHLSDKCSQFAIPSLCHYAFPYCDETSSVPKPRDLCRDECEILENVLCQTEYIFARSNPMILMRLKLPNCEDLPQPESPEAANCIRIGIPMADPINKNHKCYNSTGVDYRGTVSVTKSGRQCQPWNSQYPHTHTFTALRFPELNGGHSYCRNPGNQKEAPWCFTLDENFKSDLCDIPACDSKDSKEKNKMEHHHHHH

| Binder | Kd [1] [nM] | Kd [2] [nM] | Kd [3] [nM] |
| --- | --- | --- | --- |
| RO6D8-jlv1011 (antibody, V domains shown) VH: QVQLVQSGAEVKKPGASVKVSCKASGYTFTSKYYHWVRQAPGQGLEWMGIINPTSGSTSYAQKFQGRVTMTRDTSTSTVYMELSSLRSEDTAVYYCARDSSRYSGWYFDLWGQGTTVTVSS VL: AIQLTQSPSSLSASVGDRVTITCRASQGVSTEIAWYQQKPGKAPKLLIYAASSLQSGVPSRFSGSGSGTDFTLTISSLQPEDFATYYCQQYYGYPIAFGQGTRLEIK | 0.796 | 0.796 | – |
| RO6D8wt (antibody, V domains shown) VH: QVQLVQSGAEVKKPGASVKVSCKASGYTFTNYYMHWVRQAPGQGLEWMGIINPSGGSTSYAQKFQGRVTMTRDTSTSTVYMELSSLRSEDTAVYYCARDSSSWYSGWYFDLWGQGTTVTVSS VL: AIQMTQSPSSLSASVGDRVTITCRASQDVRAHLAWYQQKPGKAPKLLIYAASSLQSGVPSRFSGSGSGTDFTLTISSLQPEDFATYYCQQFNSYPITFGQGTRLEIK | 118 | – | 118 |
| RO6D8-011 (antibody, V domains shown) VH: QVQLVQSGAEVKKPGASVKVSCKASGYTFTNYYMHWVRQAPGQGLEWMGIINPTSGRTSYAQKFQGRVTMTRDTSTSTVYMELSSLRSEDTAVYYCARDSSSWYSGWYFDLWGQGTTVTVSS VL: AIQMTQSPSSLSASVGDRVTITCRASQGIRTDLAWYQQKPGKAPKLLIYAASSLQSGVPSRFSGSGSGTDFTLTISSLQPEDFATYYCQQYYGYPIAFGQGTRLEIK | 2.48 | 2.48 | – |
| RO6D8-s10 (antibody, V domains shown) VH: QVQLVQSGAEVKKPGASVKVSCKASGYTFTNYYMHWVRQAPGQGLEWMGIINPSGGSTSYAQKFQGRVTMTRDTSTSTVYMELSSLRSEDTAVYYCARSSRSSYYLWVLDLWGQGTTVTVSS VL: AIQMTQSPSSLSASVGDRVTITCRASQGVSTEIAWYQQKPGKAPKLLIYAASSLQSGVPSRFSGSGSGTDFTLTISSLQPEDFATYYCQQFNSYPITFGQGTRLEIK | 2.46 | – | 2.46 |
